Measured values taken from publication PMC2735045.

Target: CsrA-His6 (Escherichia coli, UniProt P69913 1-61)
Test: EMSA

Sequence of CsrA-His6 (P69913 whole entry): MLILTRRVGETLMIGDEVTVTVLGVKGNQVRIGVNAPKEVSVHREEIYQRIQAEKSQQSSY

Binder	Kd [nM]
ycdT transcript (-36 to +20) (ssRNA) RNA: GGGAAAGGGAUCUACAACCUACAGAUUGGUGUAGCUUUAUGGAAAAAGACUAUUUGAG	2.6 ± 0.3
ydeH transcript (-29 to +25) (ssRNA) RNA: GGGCACAAGGAACUGUGAAAAAGGAGUGGCAAUGAUCAAGAAGACAACGGAAAUUG	2.3 ± 0.1
